Data reported in paper doi:10.1101/2022.02.14.480375.

Biological target: S1PR1-SmBiT (S1P receptor-1 fused to the small fragment of split luciferase) (UniProt P21453)
Assay: split reporter

Sequence of UniProt P21453 (P21453 whole entry, the tested form may be a part): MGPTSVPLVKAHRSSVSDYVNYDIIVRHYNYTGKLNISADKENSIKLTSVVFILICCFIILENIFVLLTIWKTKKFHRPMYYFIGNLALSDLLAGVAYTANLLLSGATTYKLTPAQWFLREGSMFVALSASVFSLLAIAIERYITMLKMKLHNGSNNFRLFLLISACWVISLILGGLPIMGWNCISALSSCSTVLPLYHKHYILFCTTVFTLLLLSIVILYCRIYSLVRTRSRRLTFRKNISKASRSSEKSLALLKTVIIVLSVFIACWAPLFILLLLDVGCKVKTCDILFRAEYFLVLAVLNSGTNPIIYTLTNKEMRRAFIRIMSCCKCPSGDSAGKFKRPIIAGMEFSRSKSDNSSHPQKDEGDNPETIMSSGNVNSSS

Work on “LgBiT-beta-arrestin fusion protein (from UniProt P49407 1-418) (natural protein)” yielded a T1/2 of β-arrestin activation with albumin-bound S1P (1 μM S1P) of 16 min.
